# Laboratory results reported in the RNAGym collection of RNA variant scans (doi:10.7554/elife.80360).
# B1: Hairpin Ribozyme (parent)
# chain: GUCCUCUUUCACGUGCGCGUGAAAGAGAGAAGUGAACCAGAGAAACACACGUUGUGGUAUAUUACCUGGUA
# Variants of: B1
# Assay: self-cleavage, relative activity (ratio to wild type); higher = more cleavage; co-transcriptional
row,Variant,self-cleavage
1,GUCCUCUUUCACGUGCGCGUGUAAGAGUGAAGUGAACCAGAGAAACACACGUUGUGGUAUAUUACCUGGUA,0.67
2,GUCGUCUUUCACGUGCGCGUGAAAGAGAGAAAUGAACCAGAGAAACACACGUUGUGGUAUAUUACCUGGUA,0.154
3,GUACUCUUUCACGUGCGCGUGAAAGAGAGAAGUGAACCAGAGAAACACACGUUGUGGUAUCUUACCUGGUA,0.16
4,GCCCUCUUUCACGUGCGCGUGAAAGAGAGAAGUGAACCAGCGAAACACACGUUGUGGUAUAUUACCUGGUA,0.0362
5,GUCCUCUUUCACGUGCGCGUGAAUGAGAGAAGUGACCCAGAGAAACACACGUUGUGGUAUAUUACCUGGUA,0.517
6,GUCCACUAUCACGUGCGCGUGAAAGAGAGAAGUGAACCAGAGAAACACACGUUGUGGUAUAUUACCUGGUA,0.285
7,GUCCUCUUUCACGUGCGCGUGAAAGAGAGAAGUGAACCAGAGAAACACACGUUGUGGUAUGUUACCUGGGA,0.156
8,GUCCUCUUUCACGUGCGCGUGAAAGAGAAAAGUGAACCAGAGAAACACACGGUGUGGUAUAUUACCUGGUA,0.0639
9,GUCCUCAUUCACGUGCGCGUGAAAGAGAGAAGUGAACCAGAGAAACACGCGUUGUGGUAUAUUACCUGGUA,0.49
10,GUCCUCUUUCACGUGCGCGUGAAAGAGAGAAGUGAACCAGAGAAACACACGUUGUGGUAUAUUCCCUCGUA,0.273
11,GUCCUCUUUCACUUGCGCGUGAAAGAGAGCAGUGAACCAGAGAAACACACGUUGUGGUAUAUUACCUGGUA,0.166
12,GUCCUCUAUCACGUGCGCGUGAAAGAGAGAAGUGAUCCAGAGAAACACACGUUGUGGUAUAUUACCUGGUA,0.473
13,GUACUCUUUCAGGUGCGCGUGAAAGAGAGAAGUGAACCAGAGAAACACACGUUGUGGUAUAUUACCUGGUA,0.636
14,GUCCUCUUUCACGUGCGCGUGAAAGAGAGAAGUGAACCAGAGAAACACACGUUGUGGAAUAUUACCUGGUA,0.742
15,GUCCUCUUUCGCGUGCGCCUGAAAGAGAGAAGUGAACCAGAGAAACACACGUUGUGGUAUAUUACCUGGUA,0.784
16,GUCCUCUUUCACGUGCGCGUGAAAGAGAGAAGUGAACCAGAGAAACACACGUUGUGGUCAAUUACCUGGUA,0.223
17,GUCCUCUUUCACGUGCGCGUGAAACAGAGAAGUGAACCAGAGAAACACACGUUCUGGUAUAUUACCUGGUA,0.139
18,GUCCUCUUUCACUUGCGCGUGAAAGAGAGAAGUGAACCAGUGAAACACACGUUGUGGUAUAUUACCUGGUA,1.15
19,GUCCUCUUCCACGUGCGCGUGAAAGAGAGAAGUGAACCAGAGAAACACACGUUGUGAUAUAUUACCUGGUA,0.167

row,Variant,self-cleavage
1,GUCCUCUUUCACGUGCGCGUGAAAGAGAGAAGUGAACCAAAGAAACACACGAUGUGGUAUAUUACCUGGUA,0.352
2,GUCCUCUUUCACGUGGGCGUGAAAAAGAGAAGUGAACCAGAGAAACACACGUUGUGGUAUAUUACCUGGUA,0.612
3,GUCCUCUUUCACGUGCUCGUGAAAGAGAGAAUUGAACCAGAGAAACACACGUUGUGGUAUAUUACCUGGUA,0.121
4,GUCCUCUUUCACGUGCGCGUGAAAGAGAGAAGUGAACCAGUGAAACACACGUUGUGGUAUCUUACCUGGUA,0.39
5,GUCCUCUUUCACGUGCGUGUAAAAGAGAGAAGUGAACCAGAGAAACACACGUUGUGGUAUAUUACCUGGUA,0.833
6,GUCCUCUUUCACGUGCGCGUGAAAGAGAGAAGUGAACCAGAGAAAGACACGUUGUGGUAGAUUACCUGGUA,0.151
7,GUCCUCUUGCACGUGCGCGUGAAAGAGAGAAGUGAACCAGAGAAACACACUUUGUGGUAUAUUACCUGGUA,0.814
8,GUCCUCUUUCGCUUGCGCGUGAAAGAGAGAAGUGAACCAGAGAAACACACGUUGUGGUAUAUUACCUGGUA,0.662
9,GUCCUCUCUCACGUGCGCGUGAAAGAGAGAAGUGAACCAGAGAAACACACGUUGUGGUAUAUUAUCUGGUA,0.166
10,CUCCUCUUUCACGUGCGCGUGAAAGAGAGAAGCGAACCAGAGAAACACACGUUGUGGUAUAUUACCUGGUA,0.134
11,GUCCUCUUUCACGUGCGCGUGAAAGAGAUAAGUGAACCAGAGAAAUACACGUUGUGGUAUAUUACCUGGUA,0.124
12,GUCCUCUUUGACGUGCGCCUGAAAGAGAGAAGUGAACCAGAGAAACACACGUUGUGGUAUAUUACCUGGUA,0.539
13,GUCCUCUUUUACGUGCGCGUGAAAGAGAGAAGUGAACCAGAGACACACACGUUGUGGUAUAUUACCUGGUA,0.135
14,GUCCUCUUUCACGUGCGCAUGAAAGAGAGAAGUGAACCAGAGCAACACACGUUGUGGUAUAUUACCUGGUA,0.15
15,GUCCUCUUUUACGUGCGCGUGAAAGAGAGAAGUGAACCAGAGAAACAAACGUUGUGGUAUAUUACCUGGUA,0.104
16,GUCCUCUUUCACGUGCGCGUGAAAGAGAGAAGUGAACCAGAGAAACACAGGUUGUGCUAUAUUACCUGGUA,0.181
17,GUCCUCUUUCACGUGCGCGGGAAAGAGAGAAGUGAACCAGAGAAACACACGUUGUGGCAUAUUACCUGGUA,0.826
18,GUCCUCUUUCACGUGCGCGUGAAAGUGAGAAGUGAACCAGAGAAACAUACGUUGUGGUAUAUUACCUGGUA,0.0687
19,GUCCUCUUUCACGUGCGCGUGAAAGAGAGAAGUGAACCAGAGAUACACACGUUGUGGUAUAUUACCUGGUC,0.3
